# Test: soluble on expression in E. coli; label from the status in PepcDB or PDB records
row,Sequence,soluble on expression in E. coli
1,MTESAPSAFFTTSTPADHVHEEESSNTGYFENLPENDIHSFFEIDATSEWIKQGNHQRIALQFPDSLLPYSEKVTKLIESRFRSESAKKTFVLADTSYRSCCVDEVAAAHADCTALVHFGEACHSAPTDKIDVKYVLGSMPIFIDQFRMEFQNVADQLTAEHIVLLMDSCFSHEQEKVAAVIKEVLPGNRHVECSLLPSEDVLKQNRQNIYLGREIPSCLRNNQPTDLIFCGFPNSPLLPIWLLSYPSCSTVSHFNPINKTIQHESTRSSRLLRKRLFLVEKLKDADTVGLVVGSVGVDKHREAVKRMREMCKKAGKKIYVISVGKINVPKLSNFSTDIDVFVLLSCPFGVVLDSSDYFRPVVSYFEAEIALNPAKTWAADFGWSAEFAAFLEDKIETEVPDDKAAGDFSLISGKVRVQKTEEEKNGDGPSSVAIYNPGYCNDRTWKGLNDGVSTAEDSTKMGEGRSGIAQGYSGK,not soluble
2,MLFCPLLLIFLIANSNGEPLPPDMKDLQNHLDTFQKAVDTGDKKALREMMPVNQRISEEKLDEFIKTRKSFKMTAKSAQATSSGITGKVDYAIGKATLLLDVVLEKSSSSPSAYKFVSISKQSIPSQRREIPDCFYTLLIMCPYDLIVALAQTAENVLKG,not soluble
3,MGSDKIHHHHHHMSAELNQPVPRPGILDIAAYVPGKEHVDGVAKVYKLSSNETPLGPSPKAIEAFSAAASHLEIYPDGQAIALRQAIADVHGLNIANILCGNGSDELLGLLCHVYLGAGDEAIITEHGFLVYKIQIMGAGATPVTVKEKDCVVDVDAILAAVTPKTKMVFLANPGNPTGTYVPVAEIRRLQAGLPKHVVLVLDAAYAEYVRKNDYEAGLELVSGNRNVVMTRTFSKVYGLAALRVGWMYAPVDIIDALNRVRGPFNMSAPAIAAGAAAIRDQAFVQKAVAHNALWMEKLVTTFTGLGLTVTPSVANFILIHFPDQDGKRATDADEFLSRRGYILRAVRGYGFPNALRMTVGSEEANLGVIAALTEFMGQA,not soluble
4,MVRLPPPTPPRKPNICGTSGNSNGINENIDTSTFSVSAAKALFESAKRPEVRNAAIAAAKNPFVRQTAKNVAQDEKARGAVLNAVKDPSGGNKISAAFAVADANRKSDSVPPPPPHRGGTSPGKLSGSHSAIRSQLENMHIGGSVMSSNSSTATPSYQSNSTSSYSSSAPVAPPPVPRHTQSIPSYSAPAISTPYGIAKFDYAPTQSDEMGLRIGDTVLISKKVDAEWFYGENQNQRTFGIVPSSYLDIKIPLKEAFTALPPRPAAPSGSSSGTYATAIYDYNSNEAGDLNFAVGSQIMVTARVNEEWLEGECFGRSGIFPSQFVDCPNLYQVPMKQSAPSSAPSYSHPITNNSGPKQTVTVSYDYDSGVASDLRLFEGDVITALEDIDAQWLLAECRGQQGMVPKTFLGPPYGSPKKAPSKGIAEIACAFSPKKAVATGDYHSEDPKHLYVTRGDHLLIVEDVDDYYYKGKLEAFKTLPAGILPKNIVKLEN,not soluble
5,MGSDKIHHHHHHMSKAKELTPEQFRKMQLTELDMLVEFDKVCRKHNINYVLFGGSLLGAVRHKGYIPWDDDADIGMLREDYDTFKKYASEMNSEICYFQDHDTDPEYRWGYGKLRRTNTIYVRVGQEHLKNKTGIFVDVFPMDDVPLSTLGQIVQDRKVYCLRKILWSEVARVQSTGFMKLWYSVLAKIPVEWVFSRLNKYAVKSKNITPNRVRCLSFPATGTLYKKNSLKTRYSMPKSWFTNRAEYLFEGRLLYSSKEYDEVLKYIYGKYMELPPKDKREQHSPFSKIKFQDEEMIV,not soluble
6,FEAQKAKANKAVDGGGGSLVPRGSGGGGSERHFVYQFMGECYFTNGTQRIRYVTRYIYNREEYVRYDSDVGEHRAVTELGRPDAEYWNSQPEILERTRAELDTVCRHNYEGPETHTSLRRLEQPNVVISLSRTEALNHHNTLVCSVTDFYPAKIKVRWFRNGQEETVGVSSTQLIRNGDWTFQVLVMLEMTPRRGEVYTCHVEHPSLKSPITVEWKA,soluble
7,MGSDKIHHHHHHLPTSVSPISYQLTVKTYLPGYGYTADKNNLTFEGQVLIELNITKSIKKVSLNSKDLNYTEEFIKKSSILVNGKSIAFTLDDKQSTHEKIFFNLDETVEPTTSATLKVAFGAPLRTDMSGLYQTTYTNSKGESKMAAVTQMEPVYARRMVPCFDEPAYKATWTVTVIHPNKTVAVSNGIEDKVEDGQPGFIISTFKPTPRMSSYLLAIFISEFEYNEATTKSGVRFRVWSRPEEKNSTMYAVEAGVKCLEYYEKYYNISFPLPKQDMVALPDFSAGAMENWGLITYRESALLYDPRIYSGSQKRRVAVVIAHELAHQWFGNLVTLKWWNDLWLNEGFATLVEYLGTDEISDGNMRMREWFTMDALWSALAADSVASTHPLTFKIDKAMEVLDSFDSVTYDKG,not soluble
8,MGSDKIHHHHHHMRTHGWNSTCVNRPSGSANSRRLVAHGNGWQTIDMDFAARYVALGDSFTEGVGDDDPARPNGVRGWADRVAEQLGAADPAFGYANLAIRGRKLRQIMAEQVDAAIELKPTLVTIYAGANDILRPKVDIDDLLAEYDAGIRKLSATGATVVMFTGFDARGSKVFGTMRGRTAIYNELVRGIAGDHGALLVDYWRFSEYYDWGMWAKDRMHMSAAGHANMAKRVLTVLEHDHSIDVPPMTPVPELSRADAIRANARWVREFAGPWVVRRVTGKSSGDGLQPRYSQLTRL,not soluble
9,MKMKLTAAIIAAFVIIMGCAGGPKASKADELDLAIRDTSDYLNDNIPKGNKIIILNIQSDYASLSDYIIDELIANAVNDKIFKVVDRAQLEQIRAELNFQWSGEVDDKSALEIGKFLGAQTIVTGAISQLADRHRMRIRALNVKTAEVQGQYNRNITTSPMITALMKGGKSTNTSYGGKTRSGNSSGTTGGTSGAKTSQPATPEYKIGDTGPAGGLIFYDKKNNRNGWRYLEAAPANTERETFMSGDSPYSLGNKNLVGDGFENTQNMMKSIEKKGGGIGSAPYYCTNLVVNGFNDWYLPSFDEISLMYTNLHANNLGSFKQRDYWHSSEHGVVWGTYSFAKGEKGQHSYAYDNDKRLTRACRRF,not soluble
10,MGSDKIHHHHHHMELKEHFNNKIFKLISETADELGLECYVVGGYVRDIFLKRPSKDIDVVVVGSGIEMAQAFGRKLGRGARVSVFKNFGTAQIKYHDTEVEFVGARKESYSHDSRKPVVENGTLEDDQNRRDFTINAMAVCLNKARFGELVDPFNGLDDLKERTIRTPLDPDITFSDDPLRMMRCVRFATQLNFYIDDTTFEALSRNKERIHIISKERIADELNKILLAPIPSKGFIELDRCGLLPLIFPELVALQGVETRNGRAHKDNFYHTLEVVDNISKHTDNLWLRWATLLHDIGKPRTKRWEPRIGWTFHNHNFIGEKMVPDLFRKMKLPMNEKMKYVQKLVSLHMRPIVIADDVVTDSAVRRLLFEAGDDIDDLMMLCEADITSKNEARKQKFLDNFKLVRQKLKDLEEKDRIRNFQPPVDGEEIMRIFDLQPCREIGSLKSSIKDAILDGIIPNEHDAALEHMLKKAKSMGLTPKNL,not soluble
11,MSLGETYAPQCAGPAPEPRTLPRTLPDGACDCHFHVFGDENGQPFSPHRSYTPPPAPLEAFQRVQKTLGLSRGVIVQPSVYGADNSTTLAALKEAGSAFRGVVVIDADTDTETLWAMHRLGVRGVRVNLIFKSGVEVSDVAALAEKVAPLGWHLQLLIDITEFADLYETVASLPVAVVIDHMGHMPTSCGLGHPGFTDLLRLLKEGRVWVKLSGAYRFTASKDFPYDDVTPYARALIEANPNRLLWASDWPHPCIPVPMPNDASLLEMLFNWVENDDALIKQILVDNPAKLYGEGHHHHHH,not soluble
12,EVKGIGEYKILGESIDDAAGEAFDKTAKLMGLDYPGGPLLSKLAEKGTPGRFKFPRPMTNVPGLDMSFSGLKTFTANTIAANGDDEQTRADIAYAFEEAVCATLAIKCKRALEQTGMKRIVIAGGVSANRRLRAELEKLAKKIGGEVYYPRTEFCTDNGAMIAYAGMQRLKNGEVADMSVEARPRWPIDQLTPIA,not soluble
13,MVLFMLSESKKKATNWEQITKKHGSVQCVKGCCCYSLIISFMKPKEKKDFVLFCLSSVVTCCRPIQIPSRQEKKGKFLCFFLLVLIR,soluble
14,GPGSMSALNDSRTTSGRPLPGGKPYALRPEGIPPSLCGDNVGASRGGDSIGDFKTAFEQPHSIDSEEEGDVEAASSPEQRLRRVQRDVYRHERQIASLFSEKHEHCEHLATVYKELEKVLRKIQLAPLEDLKGHAASPSASTFCAPSSDEDGYAASSTVSALASSLQQRFHQVLQQHQDRVYDVLVDYRQQINKSEYETGRRLCAIEEAIAQIQSDVRELQHTASIQVEELRHVQQDVRQRVEAVAVQQEAQRAALDATREARDTKAAKLLSKIQDDVAGLRADAKAARTQQIESAKDVEEQIRSLLSAQHRTEEALGAHSASIAQLQNQDSLEGAFHEVKDWLGDLEKRMVSRGELLQWTASLQSEIHQMRRVTGGVLSHTIEPTAPGQDA,soluble
15,MFKVNEYFDGTVKSIAFSQAEGQATIGVMAAGEYEFGTAQREIMHVISGELNVKLPDSTDWETFSTGSQFNVPANSKFQLKVSVDTAYLCEYR,not soluble
16,MANQHFAKEAPETYWKTSTDLPSFPALQEDTECDVTIIGGGITGITTAYELTKRGFRVVLIEANQVLNGTTAHTTAKVTAQHDMIYDEFIRHFGLNHARLYYEANQNAIDYIKGIVDEHQIDCEWIEQDAYLYTANENAVQKIHTEHEAYTKLGIERDLIKDLPIPLGSKLALVMKNQAQFHPLQYLKALLEQIVQKGGRIYEETVALDIKKGERPEVVTKSRHAIKSRFIICCSHFPFYDGGGLYAARMYSDRSYVLAIKPKIEYPEGMYLSIDQPSVALRYTVVNGEKLILFSGVSHKTGQGKAMSTHYETLRQLAESTIGIESIPYYWSTQDLVTIDKIPFIGPMSENEDNILVATGFKKWGMTSSAVAATLLSDLVEKKENPYESIFTPSRFHLNPGLQKVISYNADVAKHLIKGKLEKPDVQFEDISPGEGKAVTINGRRAGAFRDETGCLHLVDTTCTHLGCEVEWNDSEHTWDCPCHGSRFKPSGEVVEGPAIKPLKQIDLDLEHHHHHH,soluble
17,MGSDKIHHHHHHMELEKIRKLYEKVDPSQLTEREKLLTELIFTDRKLKTDKLPNGRYRILQFSGNNFEELENTLKLLLPDFVKSIGEEKIVIEAFSTDSPTNSELFDIFQTLSQDMGEEVTAYVGRFVEKNKLSEVYSEEYKIFESQQTFSEYILSESLNLSENRILQEIRKELLENPEDQKLVEAMYKASSNQTKAAKILYVHRNTLINKIKKYEQKYGLQLSGSDLTLAYNLL,not soluble
18,MSLKLHKGIKEYECKECHRRFAQKVNMLKHCKRHTGIKDFMCELCGKTFSERNTMETHKLIHTVGKQWTCSVCDKKYVTEYMLQKHVQLTHDKVEAQSCQLCGTKVSTRASMSRHMRRKHPEVLAVRIDEGHHHHHH,soluble
19,GMLFSIQTCPCQINPALNAVSTPLLYQDCCQPYHDGLYNQEVEDSDAIRADTAEHLMRTRYSAFVLVKPEYIVKTTLPAQQDLLDIKAIENWAKETDWAGLEVVAHTPKLSKRHAQVEFKAYFKTPDGLQAHHELSTFVKIKNKANSDASWYFLDPTVSMSVTQKQPCICGSGEKFKRCCGMYI,soluble
20,GSEFAIDPNEPTYCLCNQVSYGEMIGCDNEQCPIEWFHFSCVSLTYKPKGKWYCPKCRGDNE,soluble
